Source: paper PMC11832932

Biological target: HSC70 (UniProt P11142)
Test: Flag IP, blot for HA-HSC70
Conditions: reference: wild type, H2O2-treated cells; sites S371

PHGDH (from UniProt O43175) S371A, H2O2-treated cells
binding against the reference: weaker
